Measurements reported in US20150141617A1, “PRODUCTION AND PURIFICATION OF ACTIVE EUKARYOTIC FORMYLGLYCINEGENERATING ENZYME (FGE) VARIANTS” (Universität Bielefeld, priority 2013, published 2015).

Assays:
[1] = test system: cysteine-containing substrate peptide; assay: In vitro FGE activity assay with conditioned media from CHO-FD11 cells; assay type: biochemical; conditions: 5 mM GSH vs 2 mM DTT, pH 9.3, conditioned media
Experimental: FGE activity was assayed using conditioned media that contained either secreted fl-FGE (obtained from CHO-FD FGE-His6 cells) or Δ72-FGE (obtained from CHO-FD Tet-On cells after transient co-transfection with pBI-FGE-HA and pIRES-Furin constructs). After expression for 48 h at 1% or 2.5% FCS containing DMEM, the medium was collected and centrifuged at 500×g for 5 min. The supernatant was analyzed by SDS-PAGE and western blotting and aliquots were directly used for activity testing.
The activity assay was performed in triplicates with three sets of conditioned media at pH 9.3 under standard conditions as described earlier (4) with some modifications; no BSA was added to the reaction mixture and 2 mM DTT or 5 mM GSH were used as reducing agents.
The inventors have recently shown that the N-terminal part of FGE (residues 34-68) is essential to activate sulfatases in vivo (12). By contrast, the N-terminal extension was not required for in vitro FGly-generating activity of purified secreted Δ72-FGE. […] To assess the physiological consequence of the N-terminal truncation by furin on the function of FGE, the inventors analyzed the FGly-generating activity of the processed and the unprocessed forms of secreted FGE in the presence of glutathione (GSH), a physiological reductant, or DTT serving as a control. […]

furin = furin (Homo sapiens, UniProt P09958); assay: FGE processing in CHO-FD11 cells co-expressing furin; assay type: cell-based; set-up: expressed in transfected cells; host or cells: CHO-FD11 / CHO-FD11 Tet-On (furin-deficient CHO) cells, transient co-transfection with FGE
Chain of furin (P09958 108-794): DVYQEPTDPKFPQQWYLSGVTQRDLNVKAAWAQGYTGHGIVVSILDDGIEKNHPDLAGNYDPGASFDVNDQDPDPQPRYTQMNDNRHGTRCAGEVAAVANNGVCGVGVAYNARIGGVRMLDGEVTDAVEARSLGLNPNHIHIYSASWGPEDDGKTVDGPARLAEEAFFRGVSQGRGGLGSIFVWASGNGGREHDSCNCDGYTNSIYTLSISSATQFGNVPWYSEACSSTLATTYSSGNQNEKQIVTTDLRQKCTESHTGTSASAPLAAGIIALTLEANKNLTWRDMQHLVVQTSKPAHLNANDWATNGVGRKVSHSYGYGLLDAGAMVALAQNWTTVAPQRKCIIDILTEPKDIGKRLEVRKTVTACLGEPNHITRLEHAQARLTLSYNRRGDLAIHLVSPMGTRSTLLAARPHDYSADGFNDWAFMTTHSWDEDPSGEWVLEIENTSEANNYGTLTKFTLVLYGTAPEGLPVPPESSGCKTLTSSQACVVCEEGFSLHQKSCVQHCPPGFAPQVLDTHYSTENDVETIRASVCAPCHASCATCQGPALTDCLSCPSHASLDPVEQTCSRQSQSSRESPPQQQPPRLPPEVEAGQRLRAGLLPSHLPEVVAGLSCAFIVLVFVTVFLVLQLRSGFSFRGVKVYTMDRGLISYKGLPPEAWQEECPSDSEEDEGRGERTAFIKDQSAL
Text: The resulting constructs were verified by full-length sequencing of the coding region to exclude any PCR prone errors. Plasmids for expression of the PCs encoding human furin (Gene ID 5045), human PACE4 (=PCSK6, Gene ID 5046), murine […] (=Pcsk5, Gene ID 18552) and rat PC7 (=Pcsk7, Gene ID 29606) were kindly provided by Abdel-Majid Khatib (18). Note that the PC cDNAs were encoded as pIRES constructs coding also for enhanced green fluorescence protein (EGFP) such that EGFP expression levels serve as a measure of the expression levels of PCs.
3 μg of pSB-FGE-RGS-His6 vector was used for single transfections of HT1080, HeLa, HEK 293, BHK and CHO cells. Conditioned medium was collected after 24 h and centrifuged (500×g, 5 min) Cells were washed once with PBS, treated with trypsin (Lonza) and pelleted by 250×g to remove the medium. Cell pellets were resuspended in PBS (pH 7.4) containing protease inhibitor (PI) cocktail (Sigma) and lysed by sonication 3×10 s on ice. […]
In mammals, the proproteinconvertase family comprises nine enzymes that differ in their substrate specificity and tissue-specific expression and/or subcellular localization (17). […] Indeed, rFurin readily converted almost 90% of endogenous fl-FGE from untransfected HT1080 cells to the truncated form (FIG. 12E). […]

B1: FGE: human wild type full length formylglycine generating enzyme with RYSR furin cleavage motif, SEQ ID NO:2 (protein)
chain: ADEFSQEAGTGAGAGSLAGSCGCGTPQRPGAHGSSAAAHRYSREANAPGPVPGERQLAHSKMVPIPAGVFTMGTDDPQIKQDGEAPARRVTIDAFYMDAYEVSNTEFEKFVNSTGYLTEAEKFGDSFVFEGMLSEQVKTNIQQAVAAAPWWLPVKGANWRHPEGPDSTILHRPDHPVLHVSWNDAVAYCTWAGKRLPTEAEWEYSCRGGLHNRLFPWGNKLQPKGQHYANIWQGEFPVTNTGEDGFQGTAPVDAFPPNGYGLYNIVGNAWEWTSDWWTVHHSVEETLNPKGPPSGKDRVKKGGSYMCHRSYCYRYRCAARSQNTPDSSASNLGFRCAADRLPTMDSGRGSHHHHHHH
modifications: cloned matured acitve full length FGE with 6x His tag on C-terminus
B1 was tested, and the “FGly-generating activity (% substrate turnover) in the presence of GSH normalized to that of DTT (100%)” value [1] was “as active with GSH as with DTT”, the Δ72-FGE in secretions (furin; coexpression of furin, CHO-FD11 Tet-On) was roughly 100% and the “form of secreted FGE” value (furin; furin replenished by exogenous expression) was “all secreted FGE was in the truncated form”.
